# In patent US6710030B1, “Contortrostain (CN) and methods for its use in preventing metastasis and other conditions” (University of Southern California, priority 1993, dated 2004):
# Where two headings read alike, the source gives them in different places.
# Assays:
# [1] = tested on: rabbit PRP; test: ADP-induced platelet aggregation in rabbit PRP; format: cell-based; conditions: 20 μM ADP
# Protocol: Column fractions obtained during purification were assayed for activity using fresh human platelet rich plasma (PRP) prepared from blood obtained from human volunteers who had had no medication for at least two weeks. Blood (36 ml) was drawn into 4 ml of 0.1 M citrate and centrifuged at 150×g for 20 minutes. The supernatant, PRP, was removed and the remaining blood was centrifuged at 10,000 RPM to obtain platelet poor plasma (PPP). Platelet counts were adjusted to 250,000 platelets/μl using a Coulter counter. A Helena four channel aggregometer was used to monitor platelet aggregation. Inhibition of ADP-induced platelet aggregation was monitored at 37° C. by adding venom fractions one minute prior to the addition of ADP (10-20 μM final concentration). […] Rabbit and canine PRP was prepared by the same procedure and used in the studies described below.
# CN inhibited ADP-induced platelet aggregation in human, canine, and rabbit PRPs (FIG. 6). Empty circles represent human platelet rich plasma, solid circles represent canine PRP, and empty triangles represent rabbit PRP. Varying concentration of CN were preincubated for one minute with PRP prior to the addition of ADP.
# [2] = tested on: OVCAR-5 cells; test: Phosphotyrosine immunoblot, OVCAR-5 cells; format: cell-based, human; conditions: data not shown
# [3] = tested on: human platelet rich plasma; conditions: cited from earlier work
# [4] = tested on: canine carotid artery thrombosis model; test: Reoccluding canine carotid artery thrombosis model; format: in vivo
# Description: The model of carotid artery thrombosis in the anesthetized canine described is a modification of one developed for the study of experimentally-induced coronary artery thrombosis [Romson, J. L. et al., Thromb. Res. 17:841 (1980)]. The experimental procedure results in the formation of a platelet rich intravascular thrombus at the site of an electrolytically-induced endothelial lesion in proximity to a distal arterial stenosis. The carotid artery is selected for the experimental model, thereby allowing one vessel to be used as a control and the other to be used after administration of the thrombolytic and antithrombotic therapy. APSAC (anisoylated plasminogen streptokinase activator complex) has been used as the thrombolytic agent successfully in this model. […] Parameters which are recorded include repeated measures of: phasic and mean carotid artery blood flow velocity using an ultrasonic flow probe, time to thrombotic occlusion, time to recannulization, ex vivo platelet aggregation, prothrombin time, thrombin time, activated partial thromboplastin time, red cell and white cell counts, hematocrit, EKG profile and body temperature, before and after administration of APSAC or APSAC plus CN to separate groups of animals.
# Conditioned male mongrel dogs (8-10 kg) have been used for all in vivo studies. […] Arterial blood pressure is monitored from the cannulated femoral artery with the use of a blood pressure transducer. […] Blood flow velocity in the carotid vessels is monitored continuously. […]
# Electrolytic injury to the intimal surface of each carotid vessel is accomplished with the use of an intravascular electrode. […] The current delivered to each vessel is monitored continuously and maintained at 300 μA. […]
# [5] = tested on: unactivated human platelets; test: Scatchard analysis of CN binding to unactivated human platelets
# [6] = tested on: human fibrosarcoma (HT-1080) cells; conditions: cited from earlier work
molecule,measurement,setting,value
contortrostatin (protein) DAPANPCCDAATCKLTTGSQCADGLCCDQCKFMKEGTVCRRARGDDLDDYCNGISAGCPRNPFHA,IC50 of ADP-induced rabbit platelet aggregation,[1],17.3 µg/mL
same,tyrosine phosphorylation,[2],do not show significant enhancement of tyrosine phosphorylation
same,50% inhibition (IC50) of human platelet aggregation in platelet rich plasma,[3],0.8 µg/mL
same,concentration that completely inhibits ADP-induced platelet aggregation,[3]; preincubation for 1 minute,approximately 100 nM
same,recovery of platelet counts,[4]; by the conclusion of the experimental procedure,30-40 % of the baseline value
same,drop in platelet counts,"[4]; during experiment, APSAC plus CN (0.155 mg/kg)",10-20 % of the baseline value
same,changes in mean arterial blood pressure or mean heart rate,[4]; following infusion of CN,essentially no changes
same,number of binding sites (Bm),[5],"100,000"
same,Inhibition of HT1080 cell binding to fibronectin,[6]; CN at 1 μg/ml,89%
same,Inhibition of HT1080 cell binding to fibronectin,[6]; CN at 5 μg/ml,85%
